{
  "source": "the nanobody polyreactivity screen of Harvey et al. (2022)",
  "data": [
    {"test": "yeast display, Sf9 membrane polyspecificity reagent, FACS + sequencing; frameworks hold sequencing errors", "how_it_was_run": "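A nanobody's polyreactivity label depends on the gate it was sorted from. Yeast display cells were stained with 10% biotinylated, detergent-solubilized Sf9 membrane reagent for 1 hour at 4 °C, enriched on streptavidin microbeads and sorted by FACS. The low and high (top ~1%) gates were set on anti-HA fluorescence for expression and streptavidin fluorescence for reagent binding.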", "values": [
      {"sequence": "QVQLVESGGGLVQAGGSLRLSCAASGSIFRFNAMGWYRPAPGKERELVAAISDSGGRTYYADSVKGRFTISRDNAKNTVYLQMNSLKPEDTAVYYCNAYVHTQGGDYWGQGTQVTVSS", "polyreactivity (PSR sort gate)": "high polyreactivity"},
      {"sequence": "QVQLVESGGGLVQAGGSLRLSCAASGSIFRFNAMGWYRQAPGKERELVAAISDSGGRTYYADSVKGRFTISRDNAKNTVYLQMNSLKPEETAVYYCNAYVHSQGGDYWGQGTQVTVSS", "polyreactivity (PSR sort gate)": "high polyreactivity"},
      {"sequence": "QVQLVESGGGLVQAGGSLRLSCAASGSIFRFNAMGWYRQAPGKERELVATISRSGGSTYYADSVKGRFTISRDNAKNTVYLQMNSLKPEDTAVYYCAADAYPTWPEYDGLYFKYDYWGQGTQVTVSS", "polyreactivity (PSR sort gate)": "high polyreactivity"},
      {"sequence": "QVQLVESGGGLVQAGGSLRLSCAASGSIFRFYAMGWYIQAPGKERELVAGITWSGASTYYAVSVKGRFTISRDNAKNTVYLQMNSLKPEDTAVYYCAAKSLIVRYDSWGQGTQVTVSS", "polyreactivity (PSR sort gate)": "high polyreactivity"},
      {"sequence": "QVQLVESGGGLVQAGGSLRLSCAASGSIFRFYAMGWYRQAPGKERELVAGITWSGASTYYADSVKGRFTISRDNAKNTVYFQMNSLKPEDSAVYYCAAKSLIVRYDSWGQGTQVSVSS", "polyreactivity (PSR sort gate)": "high polyreactivity"},
      {"sequence": "QVQLVESGGGLVQAGGSLRLSCAASGSIFRGNAMGWYRQAPGKEMELVAAINKSGGSTYYADSVKGRFTISRDNAKNTVYLQMNSLKPEDTAVYYCAAVYKRLQPYGYWGQGTQVTVSS", "polyreactivity (PSR sort gate)": "high polyreactivity"},
      {"sequence": "QVQLVESGGGLVQAGGSLRLSCAASGSIFRGNAMGWYRQAPGKERELVAAISKSGGSTYYADSVKGRFTISRDHAKNTVYLQMNSLKPEDTAVYYCAARTTYLYGMYYWGQGTQVTVSS", "polyreactivity (PSR sort gate)": "low polyreactivity"},
      {"sequence": "QVQLVESGGGLVQAGGSLRLSCAASGSIFRGNAMGWYRQAPGKERELVARITWSGGRTYYADSVKGRFTISRDNAKNTVYLQLNSLKPEDTAVYYCAAQYYLYRRGYMWKYDYWGQGTQVTVSS", "polyreactivity (PSR sort gate)": "high polyreactivity"},
      {"sequence": "QVQLVESGGGLVQAGGSLRLSCAASGSIFRGNAMGWYRQATGKERELVAAITSRASSTYYADSVKGRFTLSRDNAKNTVYLQMNSLKPEDTAVYYCAAKWVRSYYTFDHWGQGTQVTVSS", "polyreactivity (PSR sort gate)": "high polyreactivity"},
      {"sequence": "QVQLVESGGGLVQAGGSLRLSCAASGSIFRGNVMGWYRQAPGKERELVAAISWSGGSTYYADSVKGRFTISRDNAKNTVYLQMNSLKPEDTAVYYCAVRVWGSARGMDYWGQGTQVTVSS", "polyreactivity (PSR sort gate)": "high polyreactivity"},
      {"sequence": "QVQLVESGGGLVQAGGSLRLSCAASGSIFRGYAMGWYIQAPGKERELVAAITSRGGSTYYADSVKGRFTISRDNAKNTVYLQMNSLKPEDTEVYYCNKRVYYPWGQGTQVTVSS", "polyreactivity (PSR sort gate)": "high polyreactivity"},
      {"sequence": "QVQLVESGGGLVQAGGSLRLSCAASGSIFRGYAMGWYRQAPGKERDLVAAITSGGSTNYADSVKGRFTISRDNAKNSVYLQMNSLKPEDTAVYYCAKDLALVAPLSDYWGQGTQVTVSS", "polyreactivity (PSR sort gate)": "low polyreactivity"},
      {"sequence": "QVQLVESGGGLVQAGGSLRLSCAASGSIFRGYAMGWYRQAPGKERELVAAITFSGGSTYADSVKGRFTISRDNAKNTVYFQMNSLKPEDTAVYDCAAKRTGHNWFTVYPYYSWGQGTQVTVSS", "polyreactivity (PSR sort gate)": "low polyreactivity"},
      {"sequence": "QVQLVESGGGLVQAGGSLRLSCAASGSIFRHYAMGWYRQAPGKERELVAAISAIGGSTYADSVKGRFTISRDNAKNTVYLQMNSLKPEDTAVYYCNARSYTSYVYHEAGEFDYWGQGTQVTVSS", "polyreactivity (PSR sort gate)": "low polyreactivity"},
      {"sequence": "QVQLVESGGGLVQAGGSLRLSCAASGSIFRINAMGWYRQAPGKERELVAAISWSGGSTYYADSVKGRFTISRDNAKNTVYLQMNSLKPEDTAVYYCAAVVSKSSFDYWGQGTQVTVSS", "polyreactivity (PSR sort gate)": "low polyreactivity"},
      {"sequence": "QVQLVESGGGLVQAGGSLRLSCAASGSIFRIYAMGWSRQAPGKERELVAAIDSSGGSTYYADSVKGRFTISRDNAKNTVYLQMNSLKPEDTAVYYCAADFGSKSTPYDYWGQGTQVTVSS", "polyreactivity (PSR sort gate)": "low polyreactivity"},
      {"sequence": "QVQLVESGGGLVQAGGSLRLSCAASGSIFRIYAMGWYRQAPGKERELVAGISKSGGSTYYADSVKGRFTISRDNAKNTVYLQMNSLKPEDTAVYYCNARRPSWGLDKYDYWGQGTQVTVSS", "polyreactivity (PSR sort gate)": "low polyreactivity"},
      {"sequence": "QVQLVESGGGLVQAGGSLRLSCAASGSIFRKYAMGWYRQAPGKERELVARISSGGRTYYADSVKGRFTISRDNAKNTVYLQMNSLKPEDTAVYFCAAAYYQRGRYSWGQGSQVTVSS", "polyreactivity (PSR sort gate)": "high polyreactivity"},
      {"sequence": "QVQLVESGGGLVQAGGSLRLSCAASGSIFRKYAMGWYRQAPGKERELVAVITTDGSTNYADSVKGRFTISRDNAKNTVYLQMNSLKPEDTAVYYCNAVRSSIGTDNDYWGQGTQVTVSS", "polyreactivity (PSR sort gate)": "low polyreactivity"},
      {"sequence": "QVQLVESGGGLVQAGGSLRLSCAASGSIFRLYAMGWYRPAPGKERELVAAISRRGGSTNYADSVKGRFTISRDNAKNTVNLQMNSLKPEDTAVYYCNAVSKRSRYDYWGQGTQVTVSS", "polyreactivity (PSR sort gate)": "high polyreactivity"},
      {"sequence": "QVQLVESGGGLVQAGGSLRLSCAASGSIFRLYAMGWYRQAPGKEREFVARIRWRGGSTNYADSVKGRFTISRDNAKNTVYLQMNSLKPEDTAVYYCAAKQGTVRAHTYVPWYDYWGQGTQVTVSS", "polyreactivity (PSR sort gate)": "high polyreactivity"},
      {"sequence": "QVQLVESGGGLVQAGGSLRLSCAASGSIFRLYAMGWYRQAPGKERELVATITSGGNTYADSVKGRFTISRDNAKNTVYLQMNSLKPEDTAVYYCATTVYAYSYGYEYWGQGTQVTVSS", "polyreactivity (PSR sort gate)": "high polyreactivity"},
      {"sequence": "QVQLVESGGGLVQAGGSLRLSCAASGSIFRNNAMGWYRQAPGKERELVASITRRGGSTYYADSVKGRFTISRDNAKNTVYLQMNSLKPEDTAVYYCAATTQHRYKLNYWGQGTQVTVSS", "polyreactivity (PSR sort gate)": "high polyreactivity"},
      {"sequence": "QVQLVESGGGLVQAGGSLRLSCAASGSIFRNYAMGWYRQAPGKERELVAAISRRGGSTYYADSVKGRFTISRDNAKNTVYLQMNSLKPEDTAVYYCKKRWSSKTVQYDYWGQGTQVTVSS", "polyreactivity (PSR sort gate)": "high polyreactivity"},
      {"sequence": "QVQLVESGGGLVQAGGSLRLSCAASGSIFRNYAMGWYRQAPGKERELVATISWNGGRTHYADSVKGRFTISRDNAKNTVYLQMNSLKPVDTAVYYCNKDAASFRHFYGYGYWGQGTQVTVSS", "polyreactivity (PSR sort gate)": "low polyreactivity"},
      {"sequence": "QVQLVESGGGLVQAGGSLRLSCAASGSIFRNYAMGWYRQAPGKERELVAVITYSGGNTYYADSVKGRFTISRDIAKNTVYLQMNSLKPEDSAVYYCAADYLVVAYGYRYLRHYYWGQGTQVTVSS", "polyreactivity (PSR sort gate)": "high polyreactivity"},
      {"sequence": "QVQLVESGGGLVQAGGSLRLSCAASGSIFRPYAMGWYRQAPGKERELVATITWRGGSTTYADSVKGRFTISRDNAKNTVYLQMNSLKPEDTAVYYCAADASWELFAWAHYDYWGQGTQVTVSS", "polyreactivity (PSR sort gate)": "low polyreactivity"},
      {"sequence": "QVQLVESGGGLVQAGGSLRLSCAASGSIFRPYAMGWYRQAPGTERELVAAITWSGGRTYYADSVKGRFTISRDTAKNTVYLQMNSLKPDDTAVYYCAADDSEGFDYWGQGTQVTVSS", "polyreactivity (PSR sort gate)": "high polyreactivity"},
      {"sequence": "QVQLVESGGGLVQAGGSLRLSCAASGSIFRPYVMGWYRQAPGKERELVAAISSRGGDTYYADSVKGRFTISRDNAKNTVYLQMNSLKPEDTAVYYCAAVEFRDSTFVVVSSPTSKSDYWGQGTQVTVSS", "polyreactivity (PSR sort gate)": "low polyreactivity"},
      {"sequence": "QVQLVESGGGLVQAGGSLRLSCAASGSIFRRKAMGWYRQAPGKERELVAAIRRGGSTNYADSVKGRFTISRDNAKNTVYLQMNSLKPEDTAVYYCAARGGSSGFYYWGQGTQVTVSS", "polyreactivity (PSR sort gate)": "high polyreactivity"},
      {"sequence": "QVQLVESGGGLVQAGGSLRLSCAASGSIFRRNAMGWYRQAPGKERELVAAINSRGGSTYYADSVKGRFTISRDNAKNTVYLQMNSLKPEDTAVYYCATARFLRYDRYDDYWGQGTQVTVSS", "polyreactivity (PSR sort gate)": "low polyreactivity"},
      {"sequence": "QVQLVESGGGLVQAGGSLRLSCAASGSIFRRNAMGWYRQAPGKERELVAAISYSGGSTYYADSVKGRFTISRDNAKNTVYLQMNSLKPEDTAVYYCAADLYYGFGGYYYWGQGTQVTVSS", "polyreactivity (PSR sort gate)": "high polyreactivity"},
      {"sequence": "QVQLVESGGGLVQAGGSLRLSCAASGSIFRRNAMGWYRQAPGKERELVAGISGGGSTYYADSVKGRFTISRDNAKNTVYLQMNSLKPEDTAVYFCATDKHFRWAGFDYWGQGTQVTVSS", "polyreactivity (PSR sort gate)": "low polyreactivity"},
      {"sequence": "QVQLVESGGGLVQAGGSLRLSCAASGSIFRRNTMGWSRQATGKERELVAAITYRGGSTYYADSVKGRFTISRDNAKNTDYLQMNSLKPEESAVYYCARYLWYYRVSKSDSWGQGTQVTVSS", "polyreactivity (PSR sort gate)": "high polyreactivity"},
      {"sequence": "QVQLVESGGGLVQAGGSLRLSCAASGSIFRRNVMGWYRQAPGKERELVAAITGSGGSTYYADSVKGRFTISRDNAKNTVYLQMNSLKPEDTAVYYCAKVPYYSRPHDYWGQGTQVTVSS", "polyreactivity (PSR sort gate)": "high polyreactivity"},
      {"sequence": "QVQLVESGGGLVQAGGSLRLSCAASGSIFRRYAMGWYRQAPGKERELVASISSRGTRTYYADSVKGRFTISRDTAKNTVYLQMNSLKPEDTAVYYCAASYYTPYDYWGQGTQVTVSS", "polyreactivity (PSR sort gate)": "high polyreactivity"},
      {"sequence": "QVQLVESGGGLVQAGGSLRLSCAASGSIFRRYAMGWYRQAPGKERELVAVITTDGSTYYADSVKGRFTISRDNAKNTVYLQMNSLKPEDTAVYYCAADVRHYIWEYYYWGQGTQVTVSS", "polyreactivity (PSR sort gate)": "low polyreactivity"},
      {"sequence": "QVQLVESGGGLVQAGGSLRLSCAASGSIFRSNAMGWYRQAPGKERELVAAISSSGGSTYYADSVKGRFTISRDNAKNTVYLQMNSLKPEDTAVYYCNTSVDRGLGYWGQGTQVTVSS", "polyreactivity (PSR sort gate)": "low polyreactivity"},
      {"sequence": "QVQLVESGGGLVQAGGSLRLSCAASGSIFRSNTMGWYRQAPGKERELVAGISYSGGSTYADSVKGRFTISRDNAKNTVYLQMNSLKPEDTAVYYCNTVYDPHTGQSDSWGQATQVTVSS", "polyreactivity (PSR sort gate)": "low polyreactivity"},
      {"sequence": "QVQLVESGGGLVQAGGSLRLSCAASGSIFRSYAMGWYRQAPGKEREFVAAINSRSGSTYYADSVKGRFTISRDNAKNTVYFQINSLKPEDTAVYYWAVTYYTRGYGHMDYWGQGTQVTVSS", "polyreactivity (PSR sort gate)": "high polyreactivity"},
      {"sequence": "QVQLVESGGGLVQAGGSLRLSCAASGSIFRSYAMGWYRQAPGKERELVAGITSSGGSTYADSVKGRFTISRDNAKNTVYLQMNSLKPEDTAVYFCAKPGFEWLLTRLFSVSEYDYWGQGTQVTVSS", "polyreactivity (PSR sort gate)": "low polyreactivity"},
      {"sequence": "QVQLVESGGGLVQAGGSLRLSCAASGSIFRSYAMGWYRQAPGKERELVARITYRGGGTYYADSVKGRVTISRDNAKNTVYLQMKSLKPEVTAVYYCAASGAFVRTRVTTADYDYWGQGTQVTVSS", "polyreactivity (PSR sort gate)": "high polyreactivity"},
      {"sequence": "QVQLVESGGGLVQAGGSLRLSCAASGSIFRSYAMGWYRQAPGKERELVASISRRGGSTYYADSVKGRFTISRDNAKNSVYLQMNSLKPEDTAVYYCAAVRYNSRVSTTPSEMYYWGQGTQVTVSS", "polyreactivity (PSR sort gate)": "low polyreactivity"}
    ]}
  ]
}
